The target of series [1] is T1, NrdR (EcoNrdR) (Escherichia coli K-12 MG1655, UniProt P0A8D0 1-149).
T1 sequence: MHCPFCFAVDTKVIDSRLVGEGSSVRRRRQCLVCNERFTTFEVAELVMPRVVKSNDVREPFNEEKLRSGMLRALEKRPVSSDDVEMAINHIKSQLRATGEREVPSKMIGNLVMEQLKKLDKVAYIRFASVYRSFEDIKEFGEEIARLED
Briefly: MST; ATP + dATP; MST: 17 mM Tris-HCl pH 8.6, 100 mM NaCl, 7 mM MgCl2, 0.33 mM TCEP, 0.025% Tween-20, nucleotides 1 mM each, 5 nM Cy5-DNA, room temperature. To be noted: protein: recombinant; tags: C-terminal His6; chain copies: 4; label: 5'-Cy5 sense strand; blunt.

The target in series [2] is T1, NrdR (EcoNrdR). The experiment in a line: cryo-EM structure (4 A); ATP + dATP 0.5 mM each, 5 mM Mg2+, Zn2+; NrdR tetramer; MST: 17 mM Tris-HCl pH 8.6, 100 mM NaCl, 7 mM MgCl2, 0.33 mM TCEP, 0.025% Tween-20, nucleotides 1 mM each, 5 nM Cy5-DNA, room temperature. The note with it: protein: recombinant; tags: C-terminal His6; chain copies: 4; blunt.

B1: ribX promoter (dsDNA)
DNA 1: AGCATCGATCCTTTATCTCAAAAGCGTTGCGCCTTTGTTGTATCGTCAGTTCAGGGT
DNA 2: ACCCTGAACTGACGATACAACAAAGGCGCAACGCTTTTGAGATAAAGGATCGATGCT
In the case of B1, in the series with NrdR (EcoNrdR) [1], the binding result is “no binding”.

B2: EcoEF7,3 (dsDNA)
DNA 1: GCACTATTTGCTATATATTGTGTGGTTGAATCTTTTTTCAACTACATCTAGTATCTC
DNA 2: GAGATACTAGATGTAGTTGAAAAAAGATTCAACCACACAATATATAGCAAATAGTGC
In the case of B2, the binding result with NrdR (EcoNrdR) [2] is “binds”.

Source of the values: publication PMC12176259, “Bacterial transcriptional repressor NrdR – a flexible multifactorial nucleotide sensor”.
